How the values were obtained:
[1] = biological target: T1, 膜结合的小鼠IL-1RAP (NIH-3T3细胞) (mouse, UniProt Q61730 21-570); assay: flow cytometry (Fig. 11 legend)
T1 construct: whole, on cells; also called mouse IL-1RAP on NIH-3T3 cells
T1 sequence (looked up): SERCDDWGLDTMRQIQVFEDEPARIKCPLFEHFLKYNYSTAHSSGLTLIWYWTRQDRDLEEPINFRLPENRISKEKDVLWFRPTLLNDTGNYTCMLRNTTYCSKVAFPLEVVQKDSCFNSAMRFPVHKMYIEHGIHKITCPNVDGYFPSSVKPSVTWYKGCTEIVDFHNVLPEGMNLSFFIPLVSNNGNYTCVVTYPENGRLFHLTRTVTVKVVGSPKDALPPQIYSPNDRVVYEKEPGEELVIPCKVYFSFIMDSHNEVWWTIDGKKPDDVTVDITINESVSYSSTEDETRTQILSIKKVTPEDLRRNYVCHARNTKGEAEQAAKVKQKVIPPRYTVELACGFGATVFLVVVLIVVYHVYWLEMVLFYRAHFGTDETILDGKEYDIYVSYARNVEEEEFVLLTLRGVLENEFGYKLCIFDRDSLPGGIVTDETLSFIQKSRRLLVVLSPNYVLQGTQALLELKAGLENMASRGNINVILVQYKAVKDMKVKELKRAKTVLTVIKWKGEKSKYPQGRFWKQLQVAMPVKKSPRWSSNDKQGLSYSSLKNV

[2] = biological target: T2, 重组食蟹猴IL-1RAP-ECD(S21-E359)-avi-his蛋白 (cynomolgus monkey, UniProt P59822 21-359 (rhesus entry), biotinylated in the Fab SPR assay); assay: SPR; KD on cynomolgus IL-1RAP against KD on human IL-1RAP
T2 construct: also called 食蟹猴IL-1RAP-ECD-Avi-His; 重组食蟹猴IL-1RAP-avi-his蛋白
T2 sequence: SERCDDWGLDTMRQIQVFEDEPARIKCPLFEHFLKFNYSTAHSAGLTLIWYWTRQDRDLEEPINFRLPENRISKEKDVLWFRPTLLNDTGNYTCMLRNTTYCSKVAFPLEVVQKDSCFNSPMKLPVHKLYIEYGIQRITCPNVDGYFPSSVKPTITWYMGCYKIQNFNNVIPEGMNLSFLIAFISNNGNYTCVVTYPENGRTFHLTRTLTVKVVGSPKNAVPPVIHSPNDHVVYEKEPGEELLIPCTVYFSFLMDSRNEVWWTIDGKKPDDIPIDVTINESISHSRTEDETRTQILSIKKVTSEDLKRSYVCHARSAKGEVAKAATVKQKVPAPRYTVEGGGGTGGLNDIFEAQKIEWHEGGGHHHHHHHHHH

[3] = biological target: T2, 重组食蟹猴IL-1RAP-ECD(S21-E359)-avi-his蛋白; assay: SPR; IgG1 LALA captured on anti-human IgG Fc chip, cynomolgus IL-1RAP-avi-his as analyte
[4] = biological target: T3, 重组人IL-1RAP-ECD(S21-E359)-avi-his蛋白 (human, UniProt Q9NPH3 21-359, biotinylated in the BLI binning assay); assay: SPR; IgG1 LALA captured on anti-human IgG Fc chip, human IL-1RAP-avi-his as analyte
T3 construct: also called 人IL-1RAP-ECD-Avi-His; 重组人IL-1RAP-avi-his蛋白
T3 sequence: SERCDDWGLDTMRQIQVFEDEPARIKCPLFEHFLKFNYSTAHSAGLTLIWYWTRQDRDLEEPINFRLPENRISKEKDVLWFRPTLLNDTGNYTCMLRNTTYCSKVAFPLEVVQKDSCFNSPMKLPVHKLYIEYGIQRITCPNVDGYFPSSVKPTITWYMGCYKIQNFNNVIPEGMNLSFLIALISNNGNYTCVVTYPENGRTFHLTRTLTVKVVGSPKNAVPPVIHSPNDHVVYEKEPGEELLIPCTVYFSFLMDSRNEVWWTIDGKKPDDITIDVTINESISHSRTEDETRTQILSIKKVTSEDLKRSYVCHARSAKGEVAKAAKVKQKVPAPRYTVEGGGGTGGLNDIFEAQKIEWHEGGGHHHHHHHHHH

B1: 抗IL-1RAP-C3-A3-mmIgG2a-LALA (antibody, V domains shown)
VH: EVQLLESGGGLVQPGGSLRLSCAASGFIFSHYGMSWVRQAPGKGLEWVSAISYDGEGTLYADSVKGRFTISRDNSKNTLYLQMNSLRAEDTAVYYCARFRYYTAFDYWGQGTLVTVSS
VL: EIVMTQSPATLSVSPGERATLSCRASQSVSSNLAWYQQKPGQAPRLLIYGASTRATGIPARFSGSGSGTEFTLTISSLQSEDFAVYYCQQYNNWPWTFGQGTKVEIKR
notes: Mouse IgG2a LALA; also called 抗IL-1RAP-C3-A3小鼠IgG2a LALA; 抗IL-1RAP-C3-A3克隆
- binding result [1]: binds

B2: 抗IL-1RAP-UCP02-C3 Fab (Fab, V domains shown)
VH: EVQLLESGGGLVQPGGSLRLSCAASGFTFRDYAMGWVRQAPGKGLEWVSAISYDGEGTLYADSVKGRFTISRDNSKNTLYLQMNSLRAEDTAVYYCARFRYYTAFDYWGQGTLVTVSS
VL: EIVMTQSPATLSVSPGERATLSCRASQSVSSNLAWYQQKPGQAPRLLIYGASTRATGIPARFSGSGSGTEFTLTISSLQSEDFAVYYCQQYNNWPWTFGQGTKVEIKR
notes: also called 抗IL-1RAP-C3; 抗IL-1RAP-C3 Fab
- fold lower affinity than for human IL-1RAP [2]: ~40 fold

B3: 抗IL-1RAP-C8-RecC IgG1 LALA (antibody, V domains shown)
VH: QVQLVQSGAEVKKPGSSVKVSCKASGSPAEPYAIQWVRQAPGQGLEWMGYIIPSLGGYDYAQKFQGRVTITADESTSTAYMELSSLRSEDTAVYYCARGQTLYDSGRQFDIWGQGTLVTVSS
VL: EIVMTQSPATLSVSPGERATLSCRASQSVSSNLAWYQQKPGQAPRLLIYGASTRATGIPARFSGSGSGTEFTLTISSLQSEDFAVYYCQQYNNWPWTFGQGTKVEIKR
notes: Human IgG1 LALA format; also called 亲本克隆抗IL-1RAP-C8-RecC; anti-IL-1RAP-C8-RecC IgG1 LALA
- binding result [3]: binds
- binding result [4]: binds
